Assay [1] deals with human FGFR4-FGFR1 chimeric construct (hFGFR4/R1) on BaF3 cells (human) (UniProt P11362). Description: cell-based or functional assay.
Assay [2] deals with T1, human FGFR4 (soluble, Part B: SPR and FGFR4 ELISA) (human) (UniProt P22455).
T1 sequence: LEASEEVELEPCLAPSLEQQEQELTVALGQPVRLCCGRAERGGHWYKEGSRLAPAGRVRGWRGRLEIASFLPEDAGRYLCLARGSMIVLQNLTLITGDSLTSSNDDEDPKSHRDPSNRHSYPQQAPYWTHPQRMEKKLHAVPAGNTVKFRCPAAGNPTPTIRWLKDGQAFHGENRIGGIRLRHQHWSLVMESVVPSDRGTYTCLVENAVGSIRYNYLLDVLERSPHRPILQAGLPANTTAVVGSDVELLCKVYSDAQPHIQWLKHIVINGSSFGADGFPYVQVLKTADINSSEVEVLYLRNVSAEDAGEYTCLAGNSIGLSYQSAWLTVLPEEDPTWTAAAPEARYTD
Description: SPR (BIAcore-2000), antibody immobilized, human FGFR4 injected.

Assay [3] addresses T2, FGFR4 (solid phase receptor-binding assay) (Homo sapiens (Human)) (UniProt P22455).
T2 sequence: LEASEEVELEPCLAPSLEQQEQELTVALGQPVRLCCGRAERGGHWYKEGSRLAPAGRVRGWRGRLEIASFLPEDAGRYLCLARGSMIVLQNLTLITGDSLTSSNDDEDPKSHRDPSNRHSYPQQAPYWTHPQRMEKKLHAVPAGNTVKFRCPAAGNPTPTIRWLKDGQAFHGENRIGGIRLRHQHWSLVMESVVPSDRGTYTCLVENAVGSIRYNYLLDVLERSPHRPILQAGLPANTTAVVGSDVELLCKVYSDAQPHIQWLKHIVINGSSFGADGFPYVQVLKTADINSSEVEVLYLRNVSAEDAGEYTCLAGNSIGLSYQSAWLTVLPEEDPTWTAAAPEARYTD
The assay is described as follows: solid phase receptor-binding assay; LD1 titrated, inhibition of FGF19 binding to FGFR4.

In assay [4] the target is T2, FGFR4 (solid phase receptor-binding assay) (Homo sapiens (Human)). The assay is described as follows: solid phase receptor-binding assay; LD1 titrated, inhibition of FGF1 binding to FGFR4.

Consider one molecule from US20160237157A1.

B1: chimeric LD1 (chLD1) (antibody, from a related filing, human IgG1, V domains shown)
VH: EVQLQQPGAVLVRPGTSVKLSCKASGYTFTNHWMNWVKQRPGQGLEWIGMIHPSDSETTLDQKFKDKATLTVDKSSSTAYMQLNRPTSEDSAVYYCTRGDISLFDYWGQGTTVTVSS
VL: DIQMTQTTSSLSASLGDRVTITCRTSQDISNFLNWYQQKPDGTFKILISYTSRLHSGVPSRFSGSGSGTDYSLTISTLEQEDFATYFCQQGNALPYTFGGGTKLEIE
B1: the inhibition of FGF1-stimulated proliferation of BaF3/FGFR4/R1 cells (5 nM FGF1), IC50 in assay [1] was 17.4 nM. For the same molecule, in assay [2], the Kd (as a rule, a measure of binding affinity in units of concentration) was determined as 0.45 nM and the off-rate constant (koff) (as a rule, the rate constant with which the complex falls apart) was found to be 0.000173 s⁻¹. Besides, the 50% inhibitory concentration (IC50) (as a rule, the midpoint of a concentration-inhibition curve) in assay [3] was 0.102 nM. In assay [4], this molecule registered an IC50 of 0.093 nM.
